Results: PMC8285372 (2021)

Tests used:
[1] = biological target: KRAS G12V peptide on HLA-A*11:01 (human); assay: mean peptide concentration for 50% NFAT activation; J^ASP90 reporter cells 1:1 with HLA-SCD K562 pulsed with titrated peptide (10 μM–1 pM), 16–20 h; full-length, on cells
[2] = biological target: T1, KRAS G12R peptide on HLA-B*07:02 (human); assay: as above
T1 peptide: GARGVGKSAL

Binder | EC50 of peptide [1] [nM] | EC50 of peptide [2] [nM]
TCRA11V (TCR) alpha TRAV12-1 TRAJ8 CDR3: CAVNPPDTGFQKLVF beta TRBV28 TRBJ2-7 CDR3: CASSLSFRQGLREQYF | 0.15 | 
TCRB7R (TCR) alpha TRAV4 TRAJ41 CDR3: CLVGDFNSNSGYALNF beta TRBV7-2 TRBJ1-2 CDR3: CASKVYGYTF |  | 3.38
